Measurements reported in patent publication US20110145941A1 (LAY LINE GENOMICS S P A, published 2011).

What follows are binders tested against T1, human TrkA receptor on the cell surface (human, UniProt P04629 33-796) (assay: flow cytometry on TF-1 cells, 4 µg/ml).
T1 construct: whole, on cells; PC12-hTrkA: high density; also called hTrkA; huTrkA
Design: Geo Mean Fluorescence: reference not given here

T1 sequence (P04629 33-796): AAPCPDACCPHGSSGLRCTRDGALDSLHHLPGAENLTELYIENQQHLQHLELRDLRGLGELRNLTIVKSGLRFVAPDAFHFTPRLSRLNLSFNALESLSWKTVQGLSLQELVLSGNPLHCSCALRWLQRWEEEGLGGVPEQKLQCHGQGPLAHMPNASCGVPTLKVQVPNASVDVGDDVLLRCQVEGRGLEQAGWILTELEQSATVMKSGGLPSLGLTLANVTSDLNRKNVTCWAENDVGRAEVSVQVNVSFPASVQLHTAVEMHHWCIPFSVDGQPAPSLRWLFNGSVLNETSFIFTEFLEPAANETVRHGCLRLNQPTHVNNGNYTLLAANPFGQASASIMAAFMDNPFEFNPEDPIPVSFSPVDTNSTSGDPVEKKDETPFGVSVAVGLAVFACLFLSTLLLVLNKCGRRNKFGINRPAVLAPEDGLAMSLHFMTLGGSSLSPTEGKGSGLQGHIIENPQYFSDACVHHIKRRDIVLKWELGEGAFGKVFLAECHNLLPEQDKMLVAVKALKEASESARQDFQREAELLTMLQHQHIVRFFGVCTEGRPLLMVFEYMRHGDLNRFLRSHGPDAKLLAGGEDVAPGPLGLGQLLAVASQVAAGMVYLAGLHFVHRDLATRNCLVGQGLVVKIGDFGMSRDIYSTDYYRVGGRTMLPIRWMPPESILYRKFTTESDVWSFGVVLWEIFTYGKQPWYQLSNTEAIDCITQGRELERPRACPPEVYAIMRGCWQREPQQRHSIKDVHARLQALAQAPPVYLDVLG

Binder	Fold Increase	Geo Mean Fluorescence
BXhVH2VL7 (antibody, human IgG1, V domains shown, Human IgG1 constant regions (IgG1 expression vectors); COS-7 supernatant; also called hVH2/hVL7) VH: EVQLLESGGGLVQPGGSLRLSCAASGFTFSTYTMSWVRQTPGKRLEWVAYISKGGGSTYYPDTVKGRFTISRDNSKNTLYLQMNSLRAEDTAVYYCAKGAMYGNDFFYPMDYWGQGTTVTVSS VL: QIVLTQSPATLSLSPGERATLSCSASSSVSYMHWYQQKPGQSPRLLIYTTSNLASGIPSRFSGSGSGTFYTLTISSLEPEDAADYYCHQWSSYPWTFGGGTKLEIK	1.9 fold	6.5
BXhVH1VL6 (antibody, human IgG1, V domains shown, Human IgG1 constant regions (IgG1 expression vectors); COS-7 supernatant; also called hVH1/hVL6) VH: EVKLLESGGGLVQPGGSLRLSCAASGFTFSTYTMSWVRQTPGKGLEWVAYISKGGGSTYYPDTVKGRFTISRDNSKNTLYLQMNSLRAEDTAVYYCAKGAMYGNDFFYPMDYWGQGTTVTVSS VL: EIVLTQSPATLSLSPGEEATLSCSASSSVSYMHWYQQKPGQSPRLLIYTTSNLASGIPSRFSGSGSGTFYTLTISSLEPEDAADYYCHQWSSYPWTFGGGTKLEIK	1.4 fold	4.9
BXhVH1VL4 (antibody, human IgG1, V domains shown, Human IgG1 constant regions (IgG1 expression vectors); COS-7 supernatant; also called hVH1/hVL4) VH: EVKLLESGGGLVQPGGSLRLSCAASGFTFSTYTMSWVRQTPGKGLEWVAYISKGGGSTYYPDTVKGRFTISRDNSKNTLYLQMNSLRAEDTAVYYCAKGAMYGNDFFYPMDYWGQGTTVTVSS VL: QIVLTQSPATLSLSPGERATLSCSASSSVSYMHWYQQKPGQSPRLLIYTTSNLASGIPSRFSGSGSGTDFTLTISSLEPEDAADYYCHQWSSYPWTFGGGTKLEIK	1.5 fold	5.1
BXhVH1VL2 (antibody, human IgG1, V domains shown, Human IgG1 constant regions (IgG1 expression vectors); COS-7 supernatant; also called hVH1/hVL2) VH: EVKLLESGGGLVQPGGSLRLSCAASGFTFSTYTMSWVRQTPGKGLEWVAYISKGGGSTYYPDTVKGRFTISRDNSKNTLYLQMNSLRAEDTAVYYCAKGAMYGNDFFYPMDYWGQGTTVTVSS VL: EIVLTQSPATLSLSPGERATLSCSASSSVSYMHWYQQKPGQSPRLLIYTTSNLASGIPSRFSGSGSGTDFTLTISSLEPEDAADYYCHQWSSYPWTFGQGTKLEIK	1.3 fold	4.6
BXhVH2VL1 (antibody, human IgG1, V domains shown, Human IgG1 constant regions (IgG1 expression vectors); COS-7 supernatant; also called hVH2/hVL1) VH: EVQLLESGGGLVQPGGSLRLSCAASGFTFSTYTMSWVRQTPGKRLEWVAYISKGGGSTYYPDTVKGRFTISRDNSKNTLYLQMNSLRAEDTAVYYCAKGAMYGNDFFYPMDYWGQGTTVTVSS VL: EIVLTQSPATLSLSPGERATLSCSASSSVSYMHWYQQKPGQAPRLLIYTTSNLASGIPARFSGSGSGTDFTLTISSLEPEDFAVYYCHQWSSYPWTFGQGTKLEIK	2.6 fold	9.2
BXhVH2VL5 (antibody, human IgG1, V domains shown, Human IgG1 constant regions (IgG1 expression vectors); COS-7 supernatant; also called hVH2/hVL5) VH: EVQLLESGGGLVQPGGSLRLSCAASGFTFSTYTMSWVRQTPGKRLEWVAYISKGGGSTYYPDTVKGRFTISRDNSKNTLYLQMNSLRAEDTAVYYCAKGAMYGNDFFYPMDYWGQGTTVTVSS VL: QIVLTQSPATLSLSPGERATLSCSASSSVSYMHWYQQKPGQSPRLLIYTTSNLASGIPSRFSGSGSGTDYTLTISSLEPEDAADYYCHQWSSYPWTFGQGTKLEIK	1.8 fold	6.4
BXhVH3VL2 (antibody, human IgG1, V domains shown, Human IgG1 constant regions (IgG1 expression vectors); COS-7 supernatant; also called hVH3/hVL2) VH: EVQLLESGGGLVQPGGSLRLSCAASGFTFSTYTMSWVRQAPGKRLEWVAYISKGGGSTYYPDTVKGRFTISRDNSKNTLYLQMNSLRAEDTAVYYCARGAMYGNDFFYPMDYWGQGTTVTVSS VL: EIVLTQSPATLSLSPGERATLSCSASSSVSYMHWYQQKPGQSPRLLIYTTSNLASGIPSRFSGSGSGTDFTLTISSLEPEDAADYYCHQWSSYPWTFGQGTKLEIK	2 fold	7.1
BXhVH2VL8 (antibody, human IgG1, V domains shown, Human IgG1 constant regions (IgG1 expression vectors); COS-7 supernatant; also called hVH2/hVL8) VH: EVQLLESGGGLVQPGGSLRLSCAASGFTFSTYTMSWVRQTPGKRLEWVAYISKGGGSTYYPDTVKGRFTISRDNSKNTLYLQMNSLRAEDTAVYYCAKGAMYGNDFFYPMDYWGQGTTVTVSS VL: QIVLTQSPATLSLSPGEEATLSCSASSSVSYMHWYQQKSGTSPRLLIYTTSNLASGIPSRFSGSGSGTFYTLTISSLEPEDAADYYCHQWSSYPWTFGGGTKLEIK	1.9 fold	6.5
BXhVH1VL7 (antibody, human IgG1, V domains shown, Human IgG1 constant regions (IgG1 expression vectors); COS-7 supernatant; also called hVH1/hVL7) VH: EVKLLESGGGLVQPGGSLRLSCAASGFTFSTYTMSWVRQTPGKGLEWVAYISKGGGSTYYPDTVKGRFTISRDNSKNTLYLQMNSLRAEDTAVYYCAKGAMYGNDFFYPMDYWGQGTTVTVSS VL: QIVLTQSPATLSLSPGERATLSCSASSSVSYMHWYQQKPGQSPRLLIYTTSNLASGIPSRFSGSGSGTFYTLTISSLEPEDAADYYCHQWSSYPWTFGGGTKLEIK	1.5 fold	5.1
BXhVH2VL3 (antibody, human IgG1, V domains shown, Human IgG1 constant regions (IgG1 expression vectors); COS-7 supernatant; also called hVH2/hVL3) VH: EVQLLESGGGLVQPGGSLRLSCAASGFTFSTYTMSWVRQTPGKRLEWVAYISKGGGSTYYPDTVKGRFTISRDNSKNTLYLQMNSLRAEDTAVYYCAKGAMYGNDFFYPMDYWGQGTTVTVSS VL: QIVLTQSPATLSLSPGERATLSCSASSSVSYMHWYQQKPGQSPRLLIYTTSNLASGIPSRFSGSGSGTFYTLTISSLEPEDFAVYYCHQWSSYPWTFGGGTKLEIK	3.1 fold	10.8
BXhVH1VL5 (antibody, human IgG1, V domains shown, Human IgG1 constant regions (IgG1 expression vectors); COS-7 supernatant; also called hVH1/hVL5) VH: EVKLLESGGGLVQPGGSLRLSCAASGFTFSTYTMSWVRQTPGKGLEWVAYISKGGGSTYYPDTVKGRFTISRDNSKNTLYLQMNSLRAEDTAVYYCAKGAMYGNDFFYPMDYWGQGTTVTVSS VL: QIVLTQSPATLSLSPGERATLSCSASSSVSYMHWYQQKPGQSPRLLIYTTSNLASGIPSRFSGSGSGTDYTLTISSLEPEDAADYYCHQWSSYPWTFGQGTKLEIK	1.3 fold	4.5
BXhVH1VL1 (antibody, human IgG1, V domains shown, Human IgG1 constant regions (IgG1 expression vectors); COS-7 supernatant; also called hVH1/hVL1) VH: EVKLLESGGGLVQPGGSLRLSCAASGFTFSTYTMSWVRQTPGKGLEWVAYISKGGGSTYYPDTVKGRFTISRDNSKNTLYLQMNSLRAEDTAVYYCAKGAMYGNDFFYPMDYWGQGTTVTVSS VL: EIVLTQSPATLSLSPGERATLSCSASSSVSYMHWYQQKPGQAPRLLIYTTSNLASGIPARFSGSGSGTDFTLTISSLEPEDFAVYYCHQWSSYPWTFGQGTKLEIK	1.7 fold	5.7
BXhVH1VL8 (antibody, human IgG1, V domains shown, Human IgG1 constant regions (IgG1 expression vectors); COS-7 supernatant; also called hVH1/hVL8) VH: EVKLLESGGGLVQPGGSLRLSCAASGFTFSTYTMSWVRQTPGKGLEWVAYISKGGGSTYYPDTVKGRFTISRDNSKNTLYLQMNSLRAEDTAVYYCAKGAMYGNDFFYPMDYWGQGTTVTVSS VL: QIVLTQSPATLSLSPGEEATLSCSASSSVSYMHWYQQKSGTSPRLLIYTTSNLASGIPSRFSGSGSGTFYTLTISSLEPEDAADYYCHQWSSYPWTFGGGTKLEIK	1.5 fold	5.2
BXhVH2VL4 (antibody, human IgG1, V domains shown, Human IgG1 constant regions (IgG1 expression vectors); COS-7 supernatant; also called hVH2/hVL4) VH: EVQLLESGGGLVQPGGSLRLSCAASGFTFSTYTMSWVRQTPGKRLEWVAYISKGGGSTYYPDTVKGRFTISRDNSKNTLYLQMNSLRAEDTAVYYCAKGAMYGNDFFYPMDYWGQGTTVTVSS VL: QIVLTQSPATLSLSPGERATLSCSASSSVSYMHWYQQKPGQSPRLLIYTTSNLASGIPSRFSGSGSGTDFTLTISSLEPEDAADYYCHQWSSYPWTFGGGTKLEIK	1.8 fold	6.1
BXhVH3VL5 (antibody, human IgG1, V domains shown, Human IgG1 constant regions (IgG1 expression vectors); COS-7 supernatant; also called hVH3/hVL5) VH: EVQLLESGGGLVQPGGSLRLSCAASGFTFSTYTMSWVRQAPGKRLEWVAYISKGGGSTYYPDTVKGRFTISRDNSKNTLYLQMNSLRAEDTAVYYCARGAMYGNDFFYPMDYWGQGTTVTVSS VL: QIVLTQSPATLSLSPGERATLSCSASSSVSYMHWYQQKPGQSPRLLIYTTSNLASGIPSRFSGSGSGTDYTLTISSLEPEDAADYYCHQWSSYPWTFGQGTKLEIK	2 fold	6.9
BXhVH2VL6 (antibody, human IgG1, V domains shown, Human IgG1 constant regions (IgG1 expression vectors); COS-7 supernatant; also called hVH2/hVL6) VH: EVQLLESGGGLVQPGGSLRLSCAASGFTFSTYTMSWVRQTPGKRLEWVAYISKGGGSTYYPDTVKGRFTISRDNSKNTLYLQMNSLRAEDTAVYYCAKGAMYGNDFFYPMDYWGQGTTVTVSS VL: EIVLTQSPATLSLSPGEEATLSCSASSSVSYMHWYQQKPGQSPRLLIYTTSNLASGIPSRFSGSGSGTFYTLTISSLEPEDAADYYCHQWSSYPWTFGGGTKLEIK	1.8 fold	6.4
BXhVH1VL3 (antibody, human IgG1, V domains shown, Human IgG1 constant regions (IgG1 expression vectors); COS-7 supernatant; also called hVH1/hVL3) VH: EVKLLESGGGLVQPGGSLRLSCAASGFTFSTYTMSWVRQTPGKGLEWVAYISKGGGSTYYPDTVKGRFTISRDNSKNTLYLQMNSLRAEDTAVYYCAKGAMYGNDFFYPMDYWGQGTTVTVSS VL: QIVLTQSPATLSLSPGERATLSCSASSSVSYMHWYQQKPGQSPRLLIYTTSNLASGIPSRFSGSGSGTFYTLTISSLEPEDFAVYYCHQWSSYPWTFGGGTKLEIK	1.8 fold	6.1
BXhVH3VL4 (antibody, human IgG1, V domains shown, Human IgG1 constant regions (IgG1 expression vectors); COS-7 supernatant; also called hVH3/hVL4) VH: EVQLLESGGGLVQPGGSLRLSCAASGFTFSTYTMSWVRQAPGKRLEWVAYISKGGGSTYYPDTVKGRFTISRDNSKNTLYLQMNSLRAEDTAVYYCARGAMYGNDFFYPMDYWGQGTTVTVSS VL: QIVLTQSPATLSLSPGERATLSCSASSSVSYMHWYQQKPGQSPRLLIYTTSNLASGIPSRFSGSGSGTDFTLTISSLEPEDAADYYCHQWSSYPWTFGGGTKLEIK	2 fold	7.1
BXhVH3VL1 (antibody, human IgG1, V domains shown, Human IgG1 constant regions (IgG1 expression vectors); COS-7 supernatant; also called hVH3/hVL1) VH: EVQLLESGGGLVQPGGSLRLSCAASGFTFSTYTMSWVRQAPGKRLEWVAYISKGGGSTYYPDTVKGRFTISRDNSKNTLYLQMNSLRAEDTAVYYCARGAMYGNDFFYPMDYWGQGTTVTVSS VL: EIVLTQSPATLSLSPGERATLSCSASSSVSYMHWYQQKPGQAPRLLIYTTSNLASGIPARFSGSGSGTDFTLTISSLEPEDFAVYYCHQWSSYPWTFGQGTKLEIK	2.5 fold	8.6
BXhVH2VL2 (antibody, human IgG1, V domains shown, Human IgG1 constant regions (IgG1 expression vectors); COS-7 supernatant; also called hVH2/hVL2) VH: EVQLLESGGGLVQPGGSLRLSCAASGFTFSTYTMSWVRQTPGKRLEWVAYISKGGGSTYYPDTVKGRFTISRDNSKNTLYLQMNSLRAEDTAVYYCAKGAMYGNDFFYPMDYWGQGTTVTVSS VL: EIVLTQSPATLSLSPGERATLSCSASSSVSYMHWYQQKPGQSPRLLIYTTSNLASGIPSRFSGSGSGTDFTLTISSLEPEDAADYYCHQWSSYPWTFGQGTKLEIK	1.8 fold	6.4
